Assay results taken from patent US20060029546A1, “Materials and methods for identifying anti-schizophrenic agents” (deCODE Genetics, Inc., priority 2004, published 2006).

Biological target: ErbB4 (full-length, expressed in mammalian cells) (human) (UniProt Q15303)
Test: cell-based or functional assay

ErbB4 (full-length, expressed in mammalian cells) (human), sequence (Q15303 26-1308 limits assumed): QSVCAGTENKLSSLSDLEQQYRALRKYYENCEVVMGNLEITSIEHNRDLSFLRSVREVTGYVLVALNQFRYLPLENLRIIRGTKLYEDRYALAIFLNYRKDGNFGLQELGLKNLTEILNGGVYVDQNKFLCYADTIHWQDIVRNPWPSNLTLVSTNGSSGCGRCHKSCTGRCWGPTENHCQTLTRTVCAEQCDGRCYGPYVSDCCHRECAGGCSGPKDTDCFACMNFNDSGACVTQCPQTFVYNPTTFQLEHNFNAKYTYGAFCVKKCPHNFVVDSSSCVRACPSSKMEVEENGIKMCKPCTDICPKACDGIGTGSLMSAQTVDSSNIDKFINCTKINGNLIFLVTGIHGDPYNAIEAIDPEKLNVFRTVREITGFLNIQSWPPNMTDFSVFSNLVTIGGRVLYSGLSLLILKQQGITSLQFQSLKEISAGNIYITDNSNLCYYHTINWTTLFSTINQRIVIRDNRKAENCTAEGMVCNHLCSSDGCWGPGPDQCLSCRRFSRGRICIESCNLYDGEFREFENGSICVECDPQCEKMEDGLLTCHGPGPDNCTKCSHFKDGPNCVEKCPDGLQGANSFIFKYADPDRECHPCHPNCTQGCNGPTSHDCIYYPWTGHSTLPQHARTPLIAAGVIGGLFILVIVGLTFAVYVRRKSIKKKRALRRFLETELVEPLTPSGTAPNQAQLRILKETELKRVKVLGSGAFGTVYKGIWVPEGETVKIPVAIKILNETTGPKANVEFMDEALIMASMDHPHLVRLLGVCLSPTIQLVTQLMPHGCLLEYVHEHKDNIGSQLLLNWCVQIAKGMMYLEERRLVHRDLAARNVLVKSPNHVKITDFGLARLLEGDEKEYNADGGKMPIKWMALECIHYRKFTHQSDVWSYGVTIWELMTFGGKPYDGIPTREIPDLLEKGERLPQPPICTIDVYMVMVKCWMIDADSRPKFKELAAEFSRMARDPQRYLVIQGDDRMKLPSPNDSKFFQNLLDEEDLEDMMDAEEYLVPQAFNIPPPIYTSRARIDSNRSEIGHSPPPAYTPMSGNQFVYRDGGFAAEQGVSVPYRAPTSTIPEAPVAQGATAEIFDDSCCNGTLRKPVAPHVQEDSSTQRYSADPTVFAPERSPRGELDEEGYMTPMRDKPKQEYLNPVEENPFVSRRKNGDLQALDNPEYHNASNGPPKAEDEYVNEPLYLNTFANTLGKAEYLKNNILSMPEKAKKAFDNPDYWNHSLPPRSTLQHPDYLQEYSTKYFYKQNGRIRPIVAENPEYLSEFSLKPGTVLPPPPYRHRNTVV

NRG1 EC50, luciferase reporter gene under a promoter containing a serum response element (SRE), CHO-K1 cells expressing ErbB4 with or without Fyn: 1 nM
Substance: NRG1 (recombinant human HRG-αEGF domain; R&D Systems) (from UniProt Q02297 177-241) (ligand)
